Tested on: PPARγ2
Assay: GST pull-down / immunoprecipitation of sLZIP and PPARγ2 in transfected 293T cells
Assay type: binding
Method: 293T cells were obtained and washed with cold PBS. The cells were re-suspended in an IP lysis buffer [25 mM of Tris-HCl (pH 7.4), 150 mM of NaCl, 1 mM of EDTA, 1% NP-40 and 5% glycerol, and a protease inhibitor]. A suspension was centrifuged at 16,000×g for 20 minutes at 4° C. Supernatants were collected and incubated with 0.5 μg of appropriate antibodies and 25 μl of protein A/G-agarose or a GST Sepharose 4B bead for 24 hours at 4° C. A protein complex was centrifuged at 1,000×g with a cold IP lysis buffer for 1 minute and washed five times. The final pellet was re-suspended in 50 μl of an SDS-sample buffer containing 5% β-mercaptoethanol and heated for 10 minutes at 100° C. A protein sample was isolated in SDS-PAGE (8 to 10%) and transferred to nitrocellulose membranes. Co-precipitated proteins were detected according to western blotting using specific antibodies.
In order to examine whether the transcriptional activity of PPARγ2 is regulated by interaction with sLZIP, interaction between sLZIP and PPARγ2 was examined. For this purpose, 293T cells were transfected with GST-sLZIP and Myc-PPARγ2. Cell lysates were obtained and GST pull-down analysis was performed using a glutathione 4B bead. A protein complex was analyzed in SDS-PAGE and then immunoblotted with specific antibodies (FIG. 2A). The 293T cells were transfected with GST-PPARγ2 and Flag-sLZIP, and identified according to GST-pull-down analysis (FIG. 2B). PPARγ2 was translated in vitro by a TNT translation system (Promega). His-sLZIP proteins were expressed in BL21 cells using an IPTG-inducement system. Purified His-sLZIP proteins were subjected to His pull-down analysis. Proteins bound to the bead were analyzed in SDS-PAGE, and then immunoblotted with anti-PPARγ2 and anti-His antibodies (FIG. 2C). GFP-PPARγ2 and Flag-sLZIP constructs were expressed in C3H10T1/2 cells, and analyzed using mouse anti-Flag and Texas Red-labeled anti-mouse antibodies under a fluorescence microscope. The nucleus was stained with DAPI (FIG. 2D).
Activation of many nuclear receptors depends on a supplement of coactivators. Therefore, a domain of sLZIP necessary for binding with PPARγ2 was examined. For this purpose, 293T cells were transfected with GST-full length sLZIP (1-354), N-terminal deletion mutant sLZIP (1-228), C-terminal deletion mutant sLZIP (229-354), CC-terminal deletion mutant sLZIP (297-354) and PPARγ2. Cell lysates were obtained and GST pull-down analysis was performed using a glutathione 4B bead. A protein complex was analyzed in SDS-PAGE, and then immunoblotted with specific antibodies (FIG. 3A). 293T cells were transfected with Flag-full length PPARγ2, full length PPARγ2, N-terminal deletion mutant PPARγ2 (1-310), C-terminal deletion mutants PPARγ2 (139-505) and GST-sLZIP. Cell lysates were obtained and GST pull-down analysis was performed. A protein complex was analyzed in SDS-PAGE, and then immunoblotted with anti-GST and anti-Flag antibodies (FIG. 3B).
For this purpose, 293T cells were transfected with GST-PPARγ2 and Flag-sLZIP and were treated or not treated with 10 nM of RZD for 24 hours. Cell lysates were obtained and GST pull-down analysis (FIG. 5A) and immunoprecipitation (FIG. 5B) were performed using a glutathione 4B bead. A protein complex was analyzed in SDS-PAGE, and immunoblotted with anti-GST and anti-Flag antibodies. GST-PARγ2 and Flag-sLZIP were expressed in the 293T cells, and the cells were treated with 10 nM of RZD according to time of day. The cell lysates were GST pull-down analyzed (FIG. 5C). 293T cells were transfected with GST-HDAC3 and Flag-sLZIP, and treated or not treated with 10 nM of RZD for 24 hours. The cell lysates were GST pull-down analyzed (FIG. 5D). Flag-sLZIP was expressed in the 293T cells, and the cells were treated with 10 nM of RZD for 24 hours. Immunoprecipitation analysis of the cell lysates was performed using anti-NCoR1 antibodies. […]

B1: sLZIP: human small leucine-zipper protein, isoform of LZIP, 354 amino acids, no transmembrane domain; GenBank FJ263669, SEQ ID NO: 1 (protein, listed as Homo sapiens)
chain: MELELDAGDQDLLAFLLEESGDLGTAPDEAVRAPLDWALPLSEVPSDWEVDDLLCSLLSPPASLNILSSSNPCLVHHDHTYSLPRETVSMDLESESCRKEGTQMTPQHMEELAEQEIARLVLTDEEKSLLEKEGLILPETLPLTKTEEQILKRVRRKIRNKRSAQESRRKKKVYVGGLESRVLKYTAQNMELQNKVQLLEEQNLSLLDQLRKLQAMVIEISNKTSSSSMYSSDTRGSLPAEHGVLSRQLRALPSEDPYQLELPALQSEVPKDSTHQWLDGSDCVLQAPGNTSCLLHYMPQAPSAEPPLEWPFPDLFSEPLCRGPILPLQANLTRKGGWLPTGSPSVILQDRYSG
B1 was tested, and the “interaction with PPARγ2 (immunoprecipitation)” value (293T cells expressing Flag-sLZIP and GST-PPARγ2, ligand treated) was “PPARγ2 was dissociated from sLZIP”, the “interaction with PPARγ2 (GST pull-down)” value (293T cells, 10 nM RZD for 24 hours) was “dissociated from PPARγ2” and the “time dependence of interaction with PPARγ2 (GST pull-down)” value (293T cells, 10 nM RZD, time course) was “dissociated from PPARγ2 in a time-dependent manner”. For the same molecule, the “interaction with PPARγ2 (GST pull-down)” value (293T cells, no ligand) was “PPARγ2 interacted with sLZIP” and the “interaction with PPARγ2 (GST pull-down)” value (293T cells, no ligand, listed as wild type sLZIP) was “interacted with PPARγ2”.

B2: N domains of sLZIP: N-terminal deletion mutant of sLZIP, residues 1-228 (protein)
chain: MELELDAGDQDLLAFLLEESGDLGTAPDEAVRAPLDWALPLSEVPSDWEVDDLLCSLLSPPASLNILSSSNPCLVHHDHTYSLPRETVSMDLESESCRKEGTQMTPQHMEELAEQEIARLVLTDEEKSLLEKEGLILPETLPLTKTEEQILKRVRRKIRNKRSAQESRRKKKVYVGGLESRVLKYTAQNMELQNKVQLLEEQNLSLLDQLRKLQAMVIEISNKTSSSS
modifications: left off: a dimerising Fc or GST
With B2 the “interaction with PPARγ2 (GST pull-down)” value (293T cells, no ligand) was “not interacted with PPARγ2”.

Reference: US10058586B2, “Use of human small leucine zipper protein in adipocyte differentiation procedure” (Korea University Research and Business Foundation, priority 2013, dated 2018)
